{"source": "patent US8153759B2", "about": "“Depsipeptide containing lactic acid residue” (National University Corporation Gunma University, priority 2006, dated 2012)", "assay": "Observation of temperature responsiveness by apparent absorbance (turbidity at 350 nm) of aqueous polymer solutions", "assay_type": "physicochemical", "details": "for temperature responsiveness (gelation/aggregation by heating, liquefaction by cooling): reversibility / aggregation temperature: aqueous solution 10 mg/mL; for temperature responsiveness (gelation/aggregation by heating, liquefaction by cooling): reversibility: temperature-increase and -decrease rate 1° C./5 minutes between 20° C. and 70° C., 350 nm; for aggregation temperature: rate 1° C./5 minutes, 350 nm (FIG. 9)", "procedure": "(§1) FIG. 5 illustrates a graph obtained by the following procedure: an aqueous solution of poly(Gly-Ile-Gly-Lac-Pro) (SEQ ID NO: 7) (10 mg/mL) which is one embodiment of the present invention was put in a 1-mm-thick quartz cell for absorption spectra; the temperature was increased at a rate of 1° C./5 minutes between 20° C. and 70° C. and then decreased; transmittance (%) was measured with respect to a light of 350 nm at each temperature in a 1° C. interval; and a turbidity (%) obtained by subtracting the transmittance (%) from 100 was plotted.\nas §1, with “FIG. 6” for “FIG. 5”, “of poly(Ala-Ile-Gly-Lac-Pro)” for “of poly(Gly-Ile-Gly-Lac-Pro)”, “NO: 8)” for “NO: 7)”\nas §1, with “FIG. 9” for “FIG. 5”, “of poly(Gly-Val-Gly-Lac-Pro)” for “of poly(Gly-Ile-Gly-Lac-Pro)”, “NO: 9)” for “NO: 7)”, “plotted. In addition, as a comparative example, a plot of an aqueous solution (10 mg/mL) of poly(Gly-Val-Gly-Hmb-Pro) was shown.” for “plotted.”\nas §1, with “FIG. 10” for “FIG. 5”, “of poly(Gly-Val-Gly-Lac-Pro)” for “of poly(Gly-Ile-Gly-Lac-Pro)”, “NO: 9)” for “NO: 7) (10 mg/mL)”, “invention with different concentrations (10, 20, 30, and 40 mg/mL)” for “invention”\nas §1, with “FIG. 11” for “FIG. 5”, “of poly(Gly-Val-Gly-Lac-Pro)” for “of poly(Gly-Ile-Gly-Lac-Pro)”, “NO: 9) (40” for “NO: 7) (10”\nThe change in temperature responsiveness of each polymer obtained in Examples 2 and 4 due to heating an aqueous solution of the polymer was observed by apparent absorbance. The wavelength for observation was 350 nm. The wavelength corresponds to phenomenon of light scattering, i.e. white turbidity, by visual observation. Here, spectrum of poly(Gly-Ile-Gly-Lac-Pro (SEQ ID NO: 7)) and poly(Ala-Ile-Gly-Lac-Pro) (SEQ ID NO: 8) are shown in FIG. 5 and FIG. 6, respectively. The ordinate axes each represent turbidity converted from the transmittance. From the figure, the temperature responsiveness rate can be compared. […] In addition, in comparison between the observation by visual observation and the measured turbidity, the polymer underwent aggregation adequately even when the turbidity exceeds about 10 to 20%. […] The solution was actually returned to a uniform solution finally by left standing at 4° C. for 1 to 2 days. The extremely slow responsiveness (return to a uniform solution) at a low temperature is a novel property that has not happened before. […]", "note": "Non-standard residues stand in square brackets, D forms with d. No end group written: not given here. Hmb = valic acid residue (β-branched hydroxycarboxylic acid); Lac = C[C@H](O)C(=O)O"}
{"substance": "poly(Ala-Ile-Gly-Lac-Pro) (AIG[Lac]P; numbers in words are those of the source; also: polymerized repeat, ~10 units) [depsipeptide polymer, polymerization degree about 10 (molecular weight about 4,500)]", "values": [{"measurement": "time left standing until aggregated solution returned to a uniform solution", "setting": "aggregation state at high temperature transferred to low temperature, left standing at 4° C.", "result": "1 to 2", "unit": "days"}, {"measurement": "temperature responsiveness (gelation/aggregation by heating, liquefaction by cooling): reversibility", "result": "irreversible temperature responsiveness for several hours even when cooled"}]}
{"substance": "poly(Gly-Val-Gly-Hmb-Pro) (GVG[Hmb]P; also: polymerized repeat unit) [comparative depsipeptide polymer, Hmb=2-hydroxy-3-methylbutanoic acid (valic acid residue), reference compound]", "values": [{"measurement": "aggregation temperature", "result": "20-30 °C"}]}
{"substance": "poly(Gly-Ile-Gly-Lac-Pro) (GIG[Lac]P; numbers in words are those of the source; also: polymerized repeat, ~3 units) [depsipeptide polymer, polymerization degree about 3 (molecular weight about 1,200)]", "values": [{"measurement": "temperature responsiveness (gelation/aggregation by heating, liquefaction by cooling): reversibility", "result": "reversible temperature responsiveness"}]}
{"substance": "poly(Gly-Val-Gly-Lac-Pro) (GVG[Lac]P; also: polymerized repeat unit)", "values": [{"measurement": "aggregation temperature", "result": "≥ 70", "unit": "°C"}, {"measurement": "reversibility of phase transition phenomenon", "setting": "aqueous solution 40 mg/mL, 1° C./5 minutes, 20-70° C. (FIG. 11)", "result": "reversible"}, {"measurement": "aggregation temperature at increased concentration", "setting": "aqueous solution, concentration increased in the range 10 to 40 mg/mL (FIG. 10)", "result": "≤ 70", "unit": "°C"}, {"measurement": "concentration dependence of aggregation temperature", "setting": "range of 10 to 40 mg/mL (FIG. 10)", "result": "decrease with the increase in the concentration"}]}
